In publication PMC5809731:
pKd: −log10 of the molar value.

How the values were obtained:
[1] = molecular target: B30.2 domain of human TRIM5α (human) (UniProt Q9C035); assay: dual-focus fluorescence correlation spectroscopy (2fFCS); 2 nM Alexa 488-labelled B30.2 or CypA titrated with unlabelled capsid surrogate; 7°C; hydrodynamic radius against concentration, viscosity corrected with CypA as reference; Kd per monomeric capsid equivalent
[2] = molecular target: B30.2 domain of rhesus TRIM5α (rhesus macaque) (UniProt Q0PF16); assay: as above
Sequence of B30.2 domain of rhesus TRIM5α (rhesus macaque) (Q0PF16 other isoform, or with tags, fused parts or gaps): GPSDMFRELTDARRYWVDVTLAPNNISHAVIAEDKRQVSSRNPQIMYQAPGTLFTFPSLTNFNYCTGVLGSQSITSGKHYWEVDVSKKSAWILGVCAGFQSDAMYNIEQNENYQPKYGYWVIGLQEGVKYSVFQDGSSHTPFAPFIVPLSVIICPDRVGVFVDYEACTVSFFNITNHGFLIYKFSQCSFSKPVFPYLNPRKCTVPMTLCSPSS

[3] = molecular target: Flag-tagged human cyclophilin A (human) (UniProt P62937); assay: as above
Sequence of Flag-tagged human cyclophilin A (human) (P62937 whole entry): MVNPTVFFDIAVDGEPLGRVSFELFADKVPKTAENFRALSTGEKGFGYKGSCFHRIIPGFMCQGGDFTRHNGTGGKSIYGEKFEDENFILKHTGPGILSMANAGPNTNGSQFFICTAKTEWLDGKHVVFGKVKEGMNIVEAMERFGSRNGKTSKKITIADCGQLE

[4] = molecular target: Flag-tagged human cyclophilin A (human) (UniProt P62937); assay: dual-focus fluorescence correlation spectroscopy (2fFCS)

Sequence of B30.2 domain of human TRIM5α (human) (Q9C035 286-493): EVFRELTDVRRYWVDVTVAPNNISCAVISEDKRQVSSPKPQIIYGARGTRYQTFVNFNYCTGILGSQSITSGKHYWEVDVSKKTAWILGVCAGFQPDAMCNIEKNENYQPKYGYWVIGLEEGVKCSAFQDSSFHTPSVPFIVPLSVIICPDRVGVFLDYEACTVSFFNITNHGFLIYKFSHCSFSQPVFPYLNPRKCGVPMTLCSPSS

## TMEA-cross-linked R82C E180D V181A HIV-1 capsid trimer (complex)
[1]
  pKd: 3.08
[2]
  pKd: 3.36
[3]
  pKd: 4.75

## disulfide-linked A14C E45C W184A M185A HIV-1 capsid hexamer (complex)
[1]
  pKd: 3.27
[2]
  pKd: 3.22
[3]
  pKd: 4.54

## wild-type, full-length HIV-1 capsid protein (from UniProt P12493 133-363) (natural protein; other documents disagree on this pair)
[4]
  pKd: 4.58
